Data on two molecules can be found in patent publication US20240035010, “COMPOSITIONS COMPRISING A VARIANT POLYPEPTIDE AND USES THEREOF” (Arbor Biotechnologies, Inc., published 2024).

Where a chain is given by its changes, count along the chain named.

Data set [1] addresses T1, variant nuclease E736G combination (P14R, D32R, I61R, E311R, E736G).
T1 chain: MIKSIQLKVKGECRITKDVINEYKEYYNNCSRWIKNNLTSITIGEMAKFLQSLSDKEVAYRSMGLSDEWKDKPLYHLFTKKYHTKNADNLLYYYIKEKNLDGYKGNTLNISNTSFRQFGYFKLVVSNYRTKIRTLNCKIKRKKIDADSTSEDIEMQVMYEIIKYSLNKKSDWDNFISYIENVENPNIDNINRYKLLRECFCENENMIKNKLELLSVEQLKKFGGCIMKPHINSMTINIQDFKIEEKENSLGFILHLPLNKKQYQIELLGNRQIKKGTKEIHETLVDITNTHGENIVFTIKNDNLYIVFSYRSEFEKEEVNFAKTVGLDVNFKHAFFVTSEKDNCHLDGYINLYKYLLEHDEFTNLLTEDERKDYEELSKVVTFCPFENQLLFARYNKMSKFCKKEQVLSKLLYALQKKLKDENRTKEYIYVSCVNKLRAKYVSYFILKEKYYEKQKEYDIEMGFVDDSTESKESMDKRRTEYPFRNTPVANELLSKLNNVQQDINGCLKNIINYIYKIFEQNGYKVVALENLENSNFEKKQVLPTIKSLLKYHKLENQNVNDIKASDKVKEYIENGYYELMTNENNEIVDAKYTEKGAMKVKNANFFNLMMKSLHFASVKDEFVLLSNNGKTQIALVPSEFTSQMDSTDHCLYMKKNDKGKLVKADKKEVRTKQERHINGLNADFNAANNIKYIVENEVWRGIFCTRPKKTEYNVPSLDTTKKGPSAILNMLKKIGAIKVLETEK
The data set is described as follows: cell_activity; PAM 5'-TTTA-3'. Conditions: tags: pcDNA3.1 expression. Summed up:
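HEK293T cells were lipofected with nuclease plasmid (pcDNA3.1 backbone) plus RNA guide plasmid, with guide omitted in negative controls. After ~72 h cells were lysed in QuickExtract and % indels were derived from NGS reads, averaged over two bioreplicates and two technical replicates.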

Data set [2] deals with T2, variant nuclease E154G combination (P14R, D32R, I61R, E311R, E154G).
T2 chain: T1 chain with E154G, G736E
Nature of the data set: cell_activity; PAM 5'-ATTG-3'. Conditions: tags: pcDNA3.1 expression.

B1: VEGFA crRNA ; VEGFA target (ssRNA ; dsDNA)
RNA: CUUGUUGUAUAUGUCCUUUUAUAGGUAUUAAACAACUCCAGACCACCAAUGGGCAC
DNA 1: TCCAGACCACCAATGGGCAC
DNA 2: GTGCCCATTGGTGGTCTGGA
As for B1, the indel activity in data set [1] is 2.65 fold of WT.

B2: EMX1 crRNA ; EMX1 target (ssRNA ; dsDNA)
RNA: CUUGUUGUAUAUGUCCUUUUAUAGGUAUUAAACAACCCGCCGCUUCCUGAGCCAUC
DNA 1: CCGCCGCTTCCTGAGCCATC
DNA 2: GATGGCTCAGGAAGCGGCGG
In the case of B2, the indel editing activity in data set [2] is 6.04 fold of WT.
